Measurements as given in patent US20140341881A1 (DERMADIS, published 2014).

B2: human kallikrein 14 (hK14) (enzyme, UniProt Q9P0G3 25-251, looked up)
chain: IIGGHTCTRSSQPWQAALLAGPRRRFLCGGALLSGQWVITAAHCGRPILQVALGKHNLRRWEATQQVLRVVRQVTHPNYNSRTHDNDLMLLQLQQPARIGRAVRPIEVTQACASPGTSCRVSGWGTISSPIARYPASLQCVNINISPDEVCQKAYPRTITPGMVCAGVPQGGKDSCQGDSGGPLVCRGQLQGLVSWGMERCALPGYPGVYTNLCKYRSWIEETMRDK
notes: range counted on GenBank AAK48524 (printed), which may differ from the UniProt numbering; also called recombinant hK14

Experiments:
[1] = biological target: B2; experiment: progress curve, pseudo-first order, 37 C
Experimental: (§1) The association rate constants for interactions of hK14, with different inhibitors were determined under pseudo-first order conditions using the progress curve method (Morrison and Walsh, 1988). Under these conditions, a fixed amount of enzyme (2 nM) was mixed with different concentrations of inhibitor (0-80 nM) and an excess of substrate (20 μM). Reactions were performed in reaction buffer (50 mM Tris pH 7.5, 150 mM NaCl, 0.05% Triton X-100, 0.01% BSA) at 37° C. for 45 min and the rate of product formation was measured using a FLₓ800 fluorescence 96-well microplate reader (Biotek, USA) Inhibition is considered to be irreversible over the course of reaction and the progression of enzyme activity is expressed as product formation (P), beginning at a rate (vz) and is inhibited over time (t) at a first-order rate (kobs), where the rate constant is only dependent on the inhibitor concentration.
(§2) Kinetic analysis of the inhibition of human hK14 by recombinant serpins were performed under pseudo-first-order conditions using an excess of inhibitor at various molar ratios of hK14. The time-dependent inactivation of the enzyme through reaction with serpin was monitored continuously, following the decrease in the rate of substrate turnover. Progress curves for reactions with different serpin concentrations were fitted to equation 1 to calculate values describing the rate constant (kobs). The association rate constants (kₐ) were determined from the slope of kobs values versus the concentration of the hK14 inhibitors.

[2] = biological target: B2; experiment: residual hK14 activity after 4 h at 37 C against [I0]/[E0]
Experimental: SI values of rAAT, rACT, and their variants were determined with hK14 incubating the protease with varying concentrations of inhibitor. After an incubation of 4 hours at 37° C. in reaction buffer (50 mM Tris, pH 7.5, 150 mM NaCl, 0.05% Triton X-100, 0.01% BSA), the residual activity was detected by the addition of fluorescent substrate (Boc-Val-Pro-Arg-AMC). Fluorescence was measured with excitation at 340 nm (±15) and emission at 485 nm (±10) in black 96 well plates using a microplate fluorescence reader FLₓ800 (Bio-Tek Instruments, Inc.). The SI value corresponds to the abscissa intercept of the linear regression analysis of fractional velocity (velocity of inhibited enzyme reaction (vi)/velocity of uninhibited enzyme reaction (v₀)) vs. the molar ratio of the inhibitor to enzyme ([I₀]/[E₀]).

[3] = biological target: B2; experiment: progress curve
[4] = biological target: B2; experiment: residual hK14 activity against [I0]/[E0]
Summary of the method: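 hK14 preincubated 4 hours at 37° C with varying inhibitor concentrations in 50 mM Tris pH 7.5, 150 mM NaCl, 0.05% Triton X-100, 0.01% BSA; residual activity read with Boc-Val-Pro-Arg-AMC (ex 340/em 485 nm). SI taken as abscissa intercept of vi/v₀ versus [I₀]/[E₀] linear regression.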

[5] = biological target: B2; experiment: progress curve; remark: listed apart in the source
human kallikrein 6 (hK6) = human kallikrein 6 (hK6) (human, UniProt Q92876 22-244); experiment: cell-based or functional assay
human kallikrein 4 (hK4) = human kallikrein 4 (hK4) (human, UniProt Q9Y5K2 31-254, limits assumed); experiment: cell-based or functional assay
Sequence of human kallikrein 4 (hK4) (Q9Y5K2 31-254 limits assumed): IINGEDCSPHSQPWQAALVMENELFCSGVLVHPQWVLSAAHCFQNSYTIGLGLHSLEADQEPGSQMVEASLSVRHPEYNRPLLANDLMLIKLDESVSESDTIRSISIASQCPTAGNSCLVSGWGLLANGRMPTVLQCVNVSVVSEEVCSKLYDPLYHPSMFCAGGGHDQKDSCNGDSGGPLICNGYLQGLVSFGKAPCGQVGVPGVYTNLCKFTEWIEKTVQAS

thrombin = experiment: cell-based or functional assay
human kallikrein 8 (hK8) = biological target: T1, human kallikrein 8 (hK8) (human, UniProt O60259 33-260); experiment: cell-based or functional assay
T1 sequence (looked up): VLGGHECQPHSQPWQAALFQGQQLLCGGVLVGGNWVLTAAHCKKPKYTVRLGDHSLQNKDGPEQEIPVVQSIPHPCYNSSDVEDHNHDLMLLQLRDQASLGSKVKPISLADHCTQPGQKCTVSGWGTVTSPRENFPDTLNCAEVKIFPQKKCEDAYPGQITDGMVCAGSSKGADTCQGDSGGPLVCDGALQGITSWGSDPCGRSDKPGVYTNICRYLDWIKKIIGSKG

[6] = biological target: B2; experiment: cell-based or functional assay
[7] = biological target: human chymotrypsin (Chtr) (human, UniProt P17538 19-263); experiment: cell-based or functional assay
Sequence of human chymotrypsin (Chtr) (P17538 19-263): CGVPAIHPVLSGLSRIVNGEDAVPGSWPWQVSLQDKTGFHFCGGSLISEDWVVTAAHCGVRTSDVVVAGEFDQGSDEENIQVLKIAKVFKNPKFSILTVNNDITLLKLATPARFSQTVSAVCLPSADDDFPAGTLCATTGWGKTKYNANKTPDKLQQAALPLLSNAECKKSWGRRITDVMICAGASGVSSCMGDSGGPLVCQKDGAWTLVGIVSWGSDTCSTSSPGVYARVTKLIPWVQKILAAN

human kallikrein 2 (hK2) = human kallikrein 2 (hK2) (human, UniProt P20151 25-261); experiment: cell-based or functional assay
[8] = biological target: T2, human neutrophil elastase (HNE) (human, UniProt P08246 30-247, limits assumed); experiment: cell-based or functional assay
T2 sequence (looked up): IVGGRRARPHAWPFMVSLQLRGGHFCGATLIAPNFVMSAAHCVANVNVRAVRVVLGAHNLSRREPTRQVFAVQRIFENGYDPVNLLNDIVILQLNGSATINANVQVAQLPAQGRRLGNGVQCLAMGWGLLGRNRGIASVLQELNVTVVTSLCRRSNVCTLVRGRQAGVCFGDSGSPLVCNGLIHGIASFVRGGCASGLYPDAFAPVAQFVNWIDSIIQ

[9] = biological target: T3, human kallikrein 13 (hK13) (human, UniProt Q9UKR3 26-277, limits assumed); experiment: cell-based or functional assay
T3 sequence (looked up): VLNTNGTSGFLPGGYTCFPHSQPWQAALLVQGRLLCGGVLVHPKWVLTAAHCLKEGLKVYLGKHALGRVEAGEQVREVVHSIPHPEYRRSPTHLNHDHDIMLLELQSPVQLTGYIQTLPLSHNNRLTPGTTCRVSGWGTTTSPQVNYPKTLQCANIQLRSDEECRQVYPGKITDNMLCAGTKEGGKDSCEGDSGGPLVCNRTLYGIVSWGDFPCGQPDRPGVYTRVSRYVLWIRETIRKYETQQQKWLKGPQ

human kallikrein 5 (hK5) = biological target: T4, human kallikrein 5 (hK5) (human, UniProt Q9Y337 67-293, limits assumed); experiment: cell-based or functional assay
T4 sequence (looked up): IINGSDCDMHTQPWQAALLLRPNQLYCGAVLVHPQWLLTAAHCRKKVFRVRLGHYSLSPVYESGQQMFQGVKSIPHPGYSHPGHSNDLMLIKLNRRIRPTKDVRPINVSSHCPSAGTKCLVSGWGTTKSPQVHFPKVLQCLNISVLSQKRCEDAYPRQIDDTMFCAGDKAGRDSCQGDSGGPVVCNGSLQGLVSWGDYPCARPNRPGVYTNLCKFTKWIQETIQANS

[10] = biological target: prostate specific antigen (PSA, hK3) (human, UniProt P07288 25-261); experiment: cell-based or functional assay
[11] = biological target: human plasma kallikrein (PK) (human, UniProt P03952 20-638); experiment: cell-based or functional assay
Sequence of human plasma kallikrein (PK) (P03952 20-638 limits assumed): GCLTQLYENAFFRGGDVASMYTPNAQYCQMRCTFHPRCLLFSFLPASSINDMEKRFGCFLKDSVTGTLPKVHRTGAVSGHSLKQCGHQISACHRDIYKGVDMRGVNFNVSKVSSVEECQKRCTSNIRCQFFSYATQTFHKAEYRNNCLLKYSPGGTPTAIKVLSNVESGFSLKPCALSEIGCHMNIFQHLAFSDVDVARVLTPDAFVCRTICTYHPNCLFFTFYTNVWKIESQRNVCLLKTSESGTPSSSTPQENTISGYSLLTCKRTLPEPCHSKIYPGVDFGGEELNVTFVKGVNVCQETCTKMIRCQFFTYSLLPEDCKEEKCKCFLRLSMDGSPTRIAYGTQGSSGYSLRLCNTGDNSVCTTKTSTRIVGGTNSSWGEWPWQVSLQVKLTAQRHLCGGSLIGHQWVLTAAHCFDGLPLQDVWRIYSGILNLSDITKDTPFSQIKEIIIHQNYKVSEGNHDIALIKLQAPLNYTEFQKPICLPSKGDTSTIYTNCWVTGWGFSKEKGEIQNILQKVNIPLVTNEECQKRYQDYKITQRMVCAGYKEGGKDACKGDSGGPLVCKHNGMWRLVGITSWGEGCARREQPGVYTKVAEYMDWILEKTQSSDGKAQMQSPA

AATG9 [12] = biological target: T5, AATG9 (human, UniProt P01009 25-418); experiment: progress curve, pseudo-first order, 37 C
T5 construct: mature; also called rAATG9
T5 sequence (P01009 other isoform, or with tags, fused parts or gaps): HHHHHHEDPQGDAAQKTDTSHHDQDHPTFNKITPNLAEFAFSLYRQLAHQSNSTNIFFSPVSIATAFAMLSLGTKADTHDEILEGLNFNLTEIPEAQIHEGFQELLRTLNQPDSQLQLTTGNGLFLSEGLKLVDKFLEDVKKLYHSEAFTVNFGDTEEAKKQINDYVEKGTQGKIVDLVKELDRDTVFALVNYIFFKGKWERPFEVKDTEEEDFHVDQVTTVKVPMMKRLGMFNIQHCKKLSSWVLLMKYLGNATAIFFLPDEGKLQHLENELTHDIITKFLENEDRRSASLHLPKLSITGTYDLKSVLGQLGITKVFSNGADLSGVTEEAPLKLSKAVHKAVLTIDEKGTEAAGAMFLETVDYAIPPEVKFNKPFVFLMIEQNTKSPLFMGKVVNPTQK
Experimental: as §1, §2

[13] = biological target: T6, AATWT (recombinant wild type alpha-1-antitrypsin) (human, UniProt P01009 25-418); experiment: progress curve, pseudo-first order, 37 C
T6 construct: mature; also called rAATwt; rAAT
T6 sequence (P01009 other isoform, or with tags, fused parts or gaps): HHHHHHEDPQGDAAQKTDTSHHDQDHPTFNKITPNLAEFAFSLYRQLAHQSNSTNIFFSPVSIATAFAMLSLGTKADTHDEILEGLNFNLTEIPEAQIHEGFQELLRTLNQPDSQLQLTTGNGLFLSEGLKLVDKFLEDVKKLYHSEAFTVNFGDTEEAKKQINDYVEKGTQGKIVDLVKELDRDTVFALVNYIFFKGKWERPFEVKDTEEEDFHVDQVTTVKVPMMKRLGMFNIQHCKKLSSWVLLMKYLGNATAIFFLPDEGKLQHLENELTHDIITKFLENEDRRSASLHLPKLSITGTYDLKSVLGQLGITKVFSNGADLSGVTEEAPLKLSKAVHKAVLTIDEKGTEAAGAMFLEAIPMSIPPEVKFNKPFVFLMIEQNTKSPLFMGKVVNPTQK
Experimental: as §1, §2

AATG1g = biological target: T7, AATG1g (human, UniProt P01009 25-418); experiment: progress curve; * [I0]/[E0] < 5 * SI
T7 construct: mature
T7 sequence (P01009 other isoform, or with tags, fused parts or gaps): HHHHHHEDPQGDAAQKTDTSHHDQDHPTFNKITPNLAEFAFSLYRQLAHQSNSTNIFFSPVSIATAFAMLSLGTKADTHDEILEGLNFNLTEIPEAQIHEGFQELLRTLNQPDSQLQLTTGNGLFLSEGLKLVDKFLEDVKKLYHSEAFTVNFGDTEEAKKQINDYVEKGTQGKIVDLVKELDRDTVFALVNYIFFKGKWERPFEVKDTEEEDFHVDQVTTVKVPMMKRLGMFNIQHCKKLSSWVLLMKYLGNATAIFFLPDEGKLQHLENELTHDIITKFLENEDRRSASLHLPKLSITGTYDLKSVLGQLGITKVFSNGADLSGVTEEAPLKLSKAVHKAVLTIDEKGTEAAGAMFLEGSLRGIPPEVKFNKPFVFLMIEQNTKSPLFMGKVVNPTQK
Experimental: as §1

AATF3 = biological target: T8, AATF3 (human, UniProt P01009 25-418); experiment: progress curve; * [I0]/[E0] < 5 * SI
T8 construct: mature
T8 sequence (P01009 other isoform, or with tags, fused parts or gaps): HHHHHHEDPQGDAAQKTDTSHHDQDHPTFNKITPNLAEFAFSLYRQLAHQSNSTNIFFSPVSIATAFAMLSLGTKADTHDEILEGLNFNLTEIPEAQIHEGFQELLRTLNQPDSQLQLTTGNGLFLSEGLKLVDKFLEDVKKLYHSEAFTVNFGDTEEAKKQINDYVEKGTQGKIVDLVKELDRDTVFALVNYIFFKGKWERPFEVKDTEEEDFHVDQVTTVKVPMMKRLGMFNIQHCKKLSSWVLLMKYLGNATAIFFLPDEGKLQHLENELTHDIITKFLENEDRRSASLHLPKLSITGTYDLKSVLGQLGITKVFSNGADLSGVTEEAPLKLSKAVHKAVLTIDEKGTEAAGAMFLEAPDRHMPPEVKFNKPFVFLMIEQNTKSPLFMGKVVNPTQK
Experimental: as §1

AATG1 = biological target: T9, AATG1 (human, UniProt P01009 25-418); experiment: progress curve; * [I0]/[E0] < 5 * SI
T9 construct: mature
T9 sequence (P01009 other isoform, or with tags, fused parts or gaps): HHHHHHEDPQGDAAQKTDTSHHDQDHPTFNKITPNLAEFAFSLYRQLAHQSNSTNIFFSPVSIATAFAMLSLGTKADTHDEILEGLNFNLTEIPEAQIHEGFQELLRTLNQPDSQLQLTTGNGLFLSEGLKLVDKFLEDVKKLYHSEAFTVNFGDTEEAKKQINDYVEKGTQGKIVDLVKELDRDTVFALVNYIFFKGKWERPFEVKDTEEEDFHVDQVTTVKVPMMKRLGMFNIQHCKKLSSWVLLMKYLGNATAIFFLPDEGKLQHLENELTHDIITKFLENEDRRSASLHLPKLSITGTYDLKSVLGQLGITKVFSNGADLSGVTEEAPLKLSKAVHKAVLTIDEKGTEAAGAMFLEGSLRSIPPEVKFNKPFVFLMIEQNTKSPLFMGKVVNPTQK
Experimental: as §1

AATE8 = biological target: T10, AATE8 (human, UniProt P01009 25-418); experiment: progress curve; * [I0]/[E0] < 5 * SI
T10 construct: mature; also called rAATE8
T10 sequence (P01009 other isoform, or with tags, fused parts or gaps): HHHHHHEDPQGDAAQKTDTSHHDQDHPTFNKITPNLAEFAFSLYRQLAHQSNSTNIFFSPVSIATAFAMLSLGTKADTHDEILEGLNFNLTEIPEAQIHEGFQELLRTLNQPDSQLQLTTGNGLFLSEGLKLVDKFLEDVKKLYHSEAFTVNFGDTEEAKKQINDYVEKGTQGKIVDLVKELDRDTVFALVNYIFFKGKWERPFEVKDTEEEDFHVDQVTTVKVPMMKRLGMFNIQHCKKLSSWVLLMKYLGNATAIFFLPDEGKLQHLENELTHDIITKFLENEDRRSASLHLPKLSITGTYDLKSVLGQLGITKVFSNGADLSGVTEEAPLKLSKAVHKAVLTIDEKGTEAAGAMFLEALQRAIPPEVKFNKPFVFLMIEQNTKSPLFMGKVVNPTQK
Experimental: as §1

AATC11 = biological target: T11, AATC11 (human, UniProt P01009 25-418); experiment: progress curve; * [I0]/[E0] < 5 * SI
T11 construct: mature
T11 sequence (P01009 other isoform, or with tags, fused parts or gaps): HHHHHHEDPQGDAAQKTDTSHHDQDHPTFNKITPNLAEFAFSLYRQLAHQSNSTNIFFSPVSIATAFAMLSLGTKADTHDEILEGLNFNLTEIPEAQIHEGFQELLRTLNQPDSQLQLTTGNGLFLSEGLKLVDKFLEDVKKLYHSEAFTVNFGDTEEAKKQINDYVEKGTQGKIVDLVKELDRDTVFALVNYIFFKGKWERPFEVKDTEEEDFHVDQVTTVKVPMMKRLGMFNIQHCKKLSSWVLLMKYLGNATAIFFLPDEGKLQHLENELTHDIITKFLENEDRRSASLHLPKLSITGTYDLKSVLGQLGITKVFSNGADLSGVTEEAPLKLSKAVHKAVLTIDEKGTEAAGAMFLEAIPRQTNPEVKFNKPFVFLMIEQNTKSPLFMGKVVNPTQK
Experimental: as §1

AATE5 = biological target: T12, AATE5 (human, UniProt P01009 25-418); experiment: progress curve; * [I0]/[E0] < 5 * SI
T12 construct: mature
T12 sequence (P01009 other isoform, or with tags, fused parts or gaps): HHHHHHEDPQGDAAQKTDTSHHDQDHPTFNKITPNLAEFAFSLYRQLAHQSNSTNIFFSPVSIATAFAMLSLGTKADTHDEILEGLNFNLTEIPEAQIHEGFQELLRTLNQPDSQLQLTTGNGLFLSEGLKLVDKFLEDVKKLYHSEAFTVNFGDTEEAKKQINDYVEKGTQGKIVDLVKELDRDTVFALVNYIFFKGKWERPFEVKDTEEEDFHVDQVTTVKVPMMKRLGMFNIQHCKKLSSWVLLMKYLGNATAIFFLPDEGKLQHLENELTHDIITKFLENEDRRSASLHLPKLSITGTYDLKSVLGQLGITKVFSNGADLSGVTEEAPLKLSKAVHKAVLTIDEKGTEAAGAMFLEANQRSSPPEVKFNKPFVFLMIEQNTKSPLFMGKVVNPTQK
Experimental: as §1

AATG9 [14] = biological target: T5, AATG9; experiment: progress curve
Experimental: as §1

[15] = biological target: T6, AATWT (recombinant wild type …); experiment: progress curve
Experimental: as §1

B1: ACTG9 (other)
chain: MRGSHHHHHHSRHPNSPLDEENLTQENQDRGTHVDLGLASANVDFAFSLYKQLVLKAPDKNVIFSPLSISTALAFLSLGAHNTTLTEILKGLKFNLTETSEAEIHQSFQHLLRTLNQSSDELQLSMGNAMFVKEQLSLLDRFTEDAKRLYGSEAFATDFQDSAAAKKLINDYVKNGTRGKITDLIKDLDSQTMMVLVNYIFFKAKWEMPFDPQDTHQSRFYLSKKKWVMVPMMSLHHLTIPYFRDEELSCTVVELKYTGNASALFILPDQDKMEEVEAMLLPETLKRWRDSLEFREIGELYLPKFSISRDYNLNDILLQLGIEEAFTSKADLSGITGARNLAVSQVVHKAVLDVFEEGTEASAATAVKTVDYAALVETRTIVRFNRPFLMIIVPTDTQNIFFMSKVTNPKQA
notes: also called rACTG9
[1]
  kon: 74000 M⁻¹ s⁻¹
[2]
  SI (stoichiometry of inhibition): 1.5
[3]
  kon: 75000 M⁻¹ s⁻¹
[4]
  SI (stoichiometry of inhibition): 1.5
[5]
  kon: 74000 M⁻¹ s⁻¹
Human kallikrein 6 (hK6)
  Percentage inhibition: 0%
Human kallikrein 4 (hK4)
  Percentage inhibition: 0%
thrombin
  Percentage inhibition: 0%
Human kallikrein 8 (hK8)
  Percentage inhibition: 0%
[6]
  Percentage inhibition: 100%
[7]
  Percentage inhibition: 100%
Human kallikrein 2 (hK2)
  Percentage inhibition: 0%
[8]
  Percentage inhibition: 0%
[9]
  Percentage inhibition: 0%
Human kallikrein 5 (hK5)
  Percentage inhibition: 0%
[10]
  Percentage inhibition: 0%
[11]
  Percentage inhibition: 0%

## B2
AATG9 [12]
  kon: 217000 M⁻¹ s⁻¹
[13]
  kon: 263000 M⁻¹ s⁻¹
AATG1g
  kon: 257000 M⁻¹ s⁻¹
AATF3
  kon: 13000 M⁻¹ s⁻¹
AATG1
  kon: 168000 M⁻¹ s⁻¹
AATE8
  kon: 242000 M⁻¹ s⁻¹
AATC11
  kon: 63000 M⁻¹ s⁻¹
AATE5
  kon: 28000 M⁻¹ s⁻¹
AATG9 [14]
  kon: 217000 M⁻¹ s⁻¹
[15]
  kon: 263000 M⁻¹ s⁻¹
